In the nanobody polyreactivity screen of Harvey et al. (2022):

Assay: yeast display, Sf9 membrane polyspecificity reagent, FACS + sequencing; frameworks hold sequencing errors
Procedure, shortened: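 Nanobodies came from a synthetic yeast display library in Saccharomyces cerevisiae BJ5465, induced with galactose for 36–48 hours and stained for 1 hour at 4 °C with 10% biotinylated, detergent-solubilized Sf9 membrane reagent. Cells were enriched on streptavidin microbeads and then FACS-sorted, with low and high (top ~1%) gates set on anti-HA fluorescence for expression and streptavidin fluorescence for reagent binding. Each polyreactivity label reflects the gate a clone came from. Genes were amplified by colony PCR, sequenced by MiSeq 2 × 250 and filtered by CDR length.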

Row | Sequence | polyreactivity (PSR sort gate)
1 | QVQLEESGGGLVQAGGRLRLSCAASGSTFDPNTMGWYRQAPGKERELVATITSVDSTNYADSVKGRFTISRDNAKNTVYLQMNSLKPEDTAVYYCNAAYGGVFFYAYDYWGQGTQVTVSS | low polyreactivity
2 | QVQLVESGGGLVQAGGSLRLSSAASGLIFVFYAMGWYRQAPGKERELVAAISTSGDRTYYADSVKGRFTISRDNAKNTVYLQMNSLKPEDTAVYYCAAGRRKVPYSREYYYWGQGTQVTVSS | high polyreactivity
3 | QVQLVESGGGLVQAGGSLRLSCAASGRTFKSYAMGWYRQAPGKERELVAAISSSGGRTFYADSVKGRFTISRDNAKNTVYLQMNSLKPEDTAVYYCNARYCYRYGGYKPVGGYYWGQGTQVTVSS | high polyreactivity
4 | QVQLVESGGGLVQAGGSLRLSCAASGRTFWAYAMGWYRQAPGKERELVAVIRGSGNTYYADSVKGRFTISRDNAKNTVYLQMNSLKPEDTAVYYCAASRAVTQYSGGGYWGQGTQVTVSS | high polyreactivity
5 | QVQLVESGGGLVQAGGSLRLSCAASGYTFYYSMGWYRQAPGKERELVAAISAGGGRTYYADSVKGRFTISRDNAKNTVYLQMNSLKPEDTAVYYCNRVYRLTAYGYDYWGQGTQVTVSS | high polyreactivity
6 | QVQLVESGGGLVQAGGSLRLSCAASGSTFGDNAMGWYRQAPGKEREFVAAITTSGTSTYYADSVKGRFTISRDNAKNTVYVQMNSLKPEDTAVYYCAAYSRAAAGFYSSRRDYYWGQGTQVTVSS | low polyreactivity
7 | QVQLVESGGGLVQAGGSLRLSCAASGSTFSYYAMGWYRQAPGKERELVAAISWSGGSTYYADSVKGRFTISRDNAKNTVYLQMNSLKPEDTAVYYCAIVTRKTYYVGNGDYWGQGTQVTVSS | high polyreactivity
8 | QVQLVESGGGLVQAGGSLRLSCAASGRTFVPYAMGRYRQAPGKERELVAAISSSGGSTYYADSVKGRFTISRDNAKNTVYLQMNSLKPEDTAVYFCAAKSRKGGDYWGQGTQVTVSS | high polyreactivity
9 | QVQLVESGGGLDQAGGSLRLSCAASGITFRYYAMGWYRQAPGKERELVATISRGVRTNYADSVKGRFTISRDNAKNTVYLQMNSLKPEDTAVYYCNADYASARRYDYWGQGTQVTVSS | high polyreactivity
10 | QVQLVESGGGLVQAGGSLRLSCAASGRIFWGSTMVWYRQAPGKEMELVAAITYRGATTYYADSVKGRFTISRDNAKNTVYLQMNSLKPEDTAVYYCAAEYYYTYGYWGQGTQVTVSS | high polyreactivity
11 | QVQLVESGGGLVQAGGSLRLSCAASGNIFVNYAMGWYRQAPGKERELVASINYNGGNTYYADSVKGRFTISRDNAKNTVYLQMNSLKPEDTAVYYCAADLPESPESYYDTDDYWGQGTQVTVSS | low polyreactivity
12 | QVQLVESGGGLVQAGGSLRLICAASGSTFYYNAMGWYRQAPGKERELVAGITYRGGSTYYADSVKGRFTISRDNAKNTVYLQMNSLKPEDTAVYYCAARHYIWSQYYTRYDYWGQGTQVTVSS | high polyreactivity
13 | QVQLVESGGGLVQAVGSLRLSCAASGRIIVRNAMGWYRQAPGKERELVAAISRSGGSTYYADSVKGRFTLSRDNAKNTVYLQMNSLIPEYTAVYYCAADYPITYTSKFNYWGHGTQVTVSS | high polyreactivity
14 | QVQLVESGGGLVQAGGSLRLSCAASGNTFGFNAMGWYTQAPGKERELVAAIRRGSGRTYYADSVKGRFTISRDNAKNTVYLQMNSLKPEDTAVYYCAAAPTTGKRPGYYYWGLGTQVTVSS | high polyreactivity
15 | QVQLVESGGGLVQAGGSLPLSCAASGIIFPYNAMGWSRQAPGKERELVAAITGGGSTYYADSVKGRFTISRDNAKNTVYLPMNSLKPEDSAVYYCAADGSGPGYDYWGQGTQVTVSS | low polyreactivity
16 | QVQLVESGGGLVQAGGSLRLSCAASGRIFFLYAMGWYRQAPGKERELVASITRRGGSTYYADSVKGRFTISRDNAKNTVYLQMNSLKPEDTAVYYCAAELYRSNVYHYDYWGQGTQVTVSS | high polyreactivity
17 | QVQLVESGGGLVQAGGSLRLSCAASGIIFYLYTMGWYRQAPGKERELVAAISKSGARTYYADSVKGRFTISRDNAKNTVYLQMNSLKPEDTAVYYCAADVSVSGYYYWGQGTQVTVSS | high polyreactivity
18 | QVQLVESGGGLVQAGGSLRLSCAASGFTFYKNTMGWYRPEPGKERELVAAISSSGSSTYYADSVKGRFRISRDNAKNTVYLLMNSLKPEDTAVYYCAAGRFAYHDDYWGQGTQVTVSS | high polyreactivity
19 | QVQLVESGGGLVQAGGSLRLSCAASGSIFTDNAMGWYKQAPGKERELVAVISSGGRTYYADSVKGRFTISRDNAKNTVYLQMNSLKPEDTAVYYCKGQKRYPFSGIEDYWGQGTQVNVSS | high polyreactivity
20 | QVQLVESGGGLDQAGGSLRLSCAASGFIFYRYVMGWYRQAPGKERELVATISSGGSTNYADSVKGRFTISRDNAKNTVYLQMNSLKPEDTAVYYCAKRRYFYNYYEYDYWGQGTQVTVSS | high polyreactivity
21 | QVQLVESAGGIVQAGGSLRLSFAASGSTFTRYAMGWYRPAPGKERELVAAIDGGGGSTSYADSVKGRFTISRDHAKNTVYLQMNSLKPEDTAVYYCAAPLDTSSRIFDYWGHGTQVTVSS | low polyreactivity
22 | QVQLVESGGGLVQAGGSLRLSCAASGIIFFPYPMGWYRQAPGKERELVASINISDSSTYYADSVKGRFTISRDTAKNTVDLQMNSLKPEDTAVYYCAADNRGDSWYWHGYWGQGTQVSVSS | low polyreactivity
